± gives the standard deviation of the averaged measurements.
System: Saccharomyces cerevisiae
Assay: protein stability index of tFT-peptide fusion (C-terminal peptide) (PSI (0-1 scale)); higher = more stable (slower turnover)
Details: temperature: 30 C
Protocol: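 MPS profiling in S. cerevisiae of the yeast C-terminome library: the last 12 aa of each annotated ORF are fused to the C-terminus of a sfGFP-mCherry timer, after a GGGS linker. Cells are FACS-sorted into 8 mCherry/sfGFP bins and deep-sequenced. PSI runs from 0 (unstable) to 1 (stable); wild type and das1Δ backgrounds, two technical replicates each.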

[1] = genetic background: das1 deletion

| Sequence | protein stability index [1] | protein stability index (genetic background: wild type) |
| --- | --- | --- |
| SGSGNSSKSNCC [SEC4 C-terminal 12 aa] | 0.691 ± 0.025 | 0.674 ± 0.018 |
| SESLSDSDLEIL [RAD24 C-terminal 12 aa] | 0.7105 ± 0.0068 | 0.666 ± 0.0085 |
| KIKKIVLKRSFD [NMD2 C-terminal 12 aa] | 0.7019 ± 0.0021 | 0.654 ± 0.022 |
| HCLSNSASHSCG [YGR018C C-terminal 12 aa] | 0.675 ± 0.014 | 0.64 ± 0.014 |
| PLTLISLLFAFI [YPS1 C-terminal 12 aa] | 0.619 ± 0.021 | 0.612 ± 0.0015 |
| QLKACQEAARQY [MIX17 C-terminal 12 aa] | 0.675 ± 0.025 | 0.66 ± 0.031 |
| TDELWEMLLDQA [MET12 C-terminal 12 aa] | 0.762 ± 0.039 | 0.723 ± 0.072 |
| NELRMSSSSLTN [VHS1 C-terminal 12 aa] | 0.6718 ± 0.0013 | 0.693 ± 0.0083 |
| EPSLRGHLIFVL [YBR300C C-terminal 12 aa] | 0.515 ± 0.0098 | 0.5178 ± 0.0049 |
| DIGKKKYSHSSN [RER1 C-terminal 12 aa] | 0.673 ± 0.043 | 0.686 ± 0.049 |
| AAELRDISQCDV [OPI8 C-terminal 12 aa] | 0.682 ± 0.024 | 0.69 ± 0.088 |
| ILLTPNNHGEMK [BDH1 C-terminal 12 aa] | 0.689 ± 0.03 | 0.684 ± 0.011 |
| GAGVVAAAAMLL [TIR1 C-terminal 12 aa] | 0.7182 ± 0.0061 | 0.713 ± 0.016 |
| TYFSKQFLKKEL [LTP1 C-terminal 12 aa] | 0.746 ± 0.017 | 0.742 ± 0.009 |
| KRTKTKITSNNG [YBR190W C-terminal 12 aa] | 0.711 ± 0.012 | 0.69 ± 0.018 |
| QNEQLQMLSNSV [ATG31 C-terminal 12 aa] | 0.723 ± 0.028 | 0.673 ± 0.046 |
| IVTEWVKKPCLC [MUP3 C-terminal 12 aa] | 0.546 ± 0.013 | 0.489 ± 0.01 |
| KPTASSSRKMFR [DUO1 C-terminal 12 aa] | 0.7169 ± 0.0025 | 0.722 ± 0.051 |
| SNFSRTLGLEFI [YGL041C C-terminal 12 aa] | 0.711 ± 0.0098 | 0.716 ± 0.077 |
| LKNYLEAQIAKK [YPR097W C-terminal 12 aa] | 0.692 ± 0.03 | 0.721 ± 0.016 |
| MTGILKDYSHRV [TFA2 C-terminal 12 aa] | 0.715 ± 0.0083 | 0.723 ± 0.063 |

| Sequence | protein stability index [1] | protein stability index (genetic background: wild type) |
| --- | --- | --- |
| NKIANFVKNAKK [TRP1 C-terminal 12 aa] | 0.708 ± 0.02 | 0.701 ± 0.029 |
| HTRRAFLIPFVF [TSC13 C-terminal 12 aa] | 0.547 ± 0.02 | 0.241 ± 0.011 |
| LSAETGIRGEGE [YIL100W C-terminal 12 aa] | 0.6849 ± 0.0034 | 0.71 ± 0.029 |
| EKDELDNIEVSK [QCR7 C-terminal 12 aa] | 0.696 ± 0.0052 | 0.683 ± 0.0078 |
| VAAKIAALAGQQ [RPL5 C-terminal 12 aa] | 0.708 ± 0.026 | 0.717 ± 0.028 |
| TQSTVIATTSSV [NDL1 C-terminal 12 aa] | 0.6904 ± 0.0063 | 0.694 ± 0.027 |
| LISFGMGNTQVI [CLN2 C-terminal 12 aa] | 0.699 ± 0.031 | 0.6846 ± 0.004 |
| DEGVSLVFEVPN [SQT1 C-terminal 12 aa] | 0.683 ± 0.02 | 0.677 ± 0.012 |
| GAHDDMDNGDDW [LAS17 C-terminal 12 aa] | 0.689 ± 0.01 | 0.663 ± 0.015 |
| ELENEHVPWGKK [HNM1 C-terminal 12 aa] | 0.714 ± 0.032 | 0.667 ± 0.015 |
| IARLEKLLSGGV [LEA1 C-terminal 12 aa] | 0.692 ± 0.017 | 0.686 ± 0.0076 |
| NYLVYHIEEENH [MNN9 C-terminal 12 aa] | 0.673 ± 0.031 | 0.645 ± 0.052 |
| VMPIFIYFYTVV [CDC1 C-terminal 12 aa] | 0.38 ± 0.044 | 0.343 ± 0.0079 |
| WVCQEILKLCKD [NRK1 C-terminal 12 aa] | 0.675 ± 0.0095 | 0.713 ± 0.036 |
| FQREQVAKGGLL [CHL4 C-terminal 12 aa] | 0.717 ± 0.016 | 0.69 ± 0.057 |
| LIHNFNSRYCHE [LEE1 C-terminal 12 aa] | 0.725 ± 0.0078 | 0.691 ± 0.0088 |
| TYCEKYHVPSIQ [YAE1 C-terminal 12 aa] | 0.6915 ± 0.0042 | 0.677 ± 0.04 |
| GWDRLVEARSQI [EMW1 C-terminal 12 aa] | 0.7268 ± 0.0039 | 0.708 ± 0.027 |
| TSGGSIVLKGSS [YGR068W-A C-terminal 12 aa] | 0.701 ± 0.026 | 0.6688 ± 0.0037 |
| SDHCWDGCWWCR [AQY2 C-terminal 12 aa] | 0.7424 ± 0.0017 | 0.765 ± 0.041 |
| TGRDMMKSAVGF [SRO77 C-terminal 12 aa] | 0.714 ± 0.015 | 0.661 ± 0.016 |

| Sequence | protein stability index [1] | protein stability index (genetic background: wild type) |
| --- | --- | --- |
| VEGGGVQYTIVS [YDL023C C-terminal 12 aa] | 0.679 ± 0.0039 | 0.669 ± 0.0067 |
| EILSMPDLSKYQ [SDH5 C-terminal 12 aa] | 0.6922 ± 0.0032 | 0.704 ± 0.044 |
| DEASGTPDEDML [GRR1 C-terminal 12 aa] | 0.6796 ± 0.0046 | 0.693 ± 0.034 |
| VTLLQMKKKLEG [PET20 C-terminal 12 aa] | 0.6926 ± 0.0053 | 0.761 ± 0.042 |
| LIFQRKYTAKEF [DTR1 C-terminal 12 aa] | 0.6863 ± 0.004 | 0.678 ± 0.035 |
| GKLAEILKPVFQ [GRX2 C-terminal 12 aa] | 0.706 ± 0.011 | 0.677 ± 0.0068 |
| EDGRPPQNDFKE [TIM22 C-terminal 12 aa] | 0.699 ± 0.0092 | 0.734 ± 0.057 |
| NQGSDVSFNEED [TOP2 C-terminal 12 aa] | 0.709 ± 0.02 | 0.685 ± 0.045 |
| DDNDDSDEREIW [UBR1 C-terminal 12 aa] | 0.699 ± 0.031 | 0.71 ± 0.029 |
| KDSELNIKSSKL [STR3 C-terminal 12 aa] | 0.78159 ± 0.00043 | 0.79 ± 0.053 |
| DSTAPKPIPGKE [YKL030W C-terminal 12 aa] | 0.68 ± 0.0037 | 0.663 ± 0.009 |
| VNADDEIENNVD [AMN1 C-terminal 12 aa] | 0.674 ± 0.0091 | 0.669 ± 0.022 |
| KKKKSLFLFGKI [YOR019W C-terminal 12 aa] | 0.702 ± 0.039 | 0.6688 ± 0.0015 |
| KGAFQKVAATSR [RPL24A C-terminal 12 aa] | 0.7102 ± 0.0065 | 0.685 ± 0.0079 |
| KLFESGQDSFDN [MRC1 C-terminal 12 aa] | 0.7192 ± 0.0032 | 0.727 ± 0.022 |
| DNFNSAPSYFSK [MIG3 C-terminal 12 aa] | 0.6975 ± 0.0012 | 0.682 ± 0.052 |
| MFGVHDKSVIIE [NSE5 C-terminal 12 aa] | 0.692 ± 0.058 | 0.7 ± 0.032 |
| SGEAAEEAEDEE [RPS9B C-terminal 12 aa] | 0.652 ± 0.023 | 0.664 ± 0.039 |
| SLCMEAGLVNEN [YCF1 C-terminal 12 aa] | 0.6959 ± 0.0021 | 0.663 ± 0.037 |
| FGGVRSPKMRRL [MRPS18 C-terminal 12 aa] | 0.72 ± 0.017 | 0.681 ± 0.042 |
| KNDKIHLFMYCT [YBR103C-A C-terminal 12 aa] | 0.54 ± 0.022 | 0.536 ± 0.0038 |

| Sequence | protein stability index [1] | protein stability index (genetic background: wild type) |
| --- | --- | --- |
| NPWGGYSQVQSK [COX5A C-terminal 12 aa] | 0.728 ± 0.02 | 0.688 ± 0.018 |
| AANAEILSKINK [POX1 C-terminal 12 aa] | 0.713 ± 0.017 | 0.683 ± 0.0089 |
| MGVFILFLDYVG [UFE1 C-terminal 12 aa] | 0.277 ± 0.032 | 0.314 ± 0.013 |
| IRAAGGVVELIA [RPL28 C-terminal 12 aa] | 0.658 ± 0.0023 | 0.652 ± 0.038 |
| RRQMGIPTISQV [FHN1 C-terminal 12 aa] | 0.681 ± 0.016 | 0.6838 ± 0.0048 |
| VYLSVIILMGNG [EMA17 C-terminal 12 aa] | 0.212 ± 0.024 | 0.247 ± 0.012 |
| TLTDLRDELRGL [NUP120 C-terminal 12 aa] | 0.678 ± 0.018 | 0.721 ± 0.024 |
| ALPNWNTPYLRR [UCC1 C-terminal 12 aa] | 0.719 ± 0.015 | 0.746 ± 0.023 |
| ITQARANTWLVV [YOR024W C-terminal 12 aa] | 0.654 ± 0.02 | 0.648 ± 0.0088 |
| ALLILVLGWFYR [SCS2 C-terminal 12 aa] | 0.405 ± 0.027 | 0.4 ± 0.0047 |
| SMVSCLLTLYVL [GTT3 C-terminal 12 aa] | 0.4741 ± 0.0017 | 0.4796 ± 0.0038 |
| GPSVMCTLYLTF [ARE2 C-terminal 12 aa] | 0.5849 ± 0.0035 | 0.59105 ± 0.00058 |
| RQLGSKQRKHRL [ECI1 C-terminal 12 aa] | 0.786 ± 0.021 | 0.82 ± 0.026 |
| PDDFEFGDDDFM [HCR1 C-terminal 12 aa] | 0.712 ± 0.031 | 0.763 ± 0.041 |
| KKIVIIYVVRFH [BSC4 C-terminal 12 aa] | 0.304 ± 0.015 | 0.339 ± 0.01 |
| DLSSFFNYRSVQ [SPH1 C-terminal 12 aa] | 0.75 ± 0.015 | 0.7374 ± 0.0021 |
| PQCGQVLSKGST [YGL132W C-terminal 12 aa] | 0.703 ± 0.0092 | 0.69 ± 0.063 |
| EDHKFDLSTITV [MRPL24 C-terminal 12 aa] | 0.703 ± 0.01 | 0.717 ± 0.023 |
| GIPNLLLPPHLV [TRM112 C-terminal 12 aa] | 0.707 ± 0.014 | 0.691 ± 0.007 |
